{"source": "paper PMC2987445", "about": "(Cancer biology & therapy, 2010)", "key": {"Akt3": {"molecular_target": "Akt3 (Mus musculus, UniProt Q9WUA6)", "sequence (Q9WUA6 whole entry)": "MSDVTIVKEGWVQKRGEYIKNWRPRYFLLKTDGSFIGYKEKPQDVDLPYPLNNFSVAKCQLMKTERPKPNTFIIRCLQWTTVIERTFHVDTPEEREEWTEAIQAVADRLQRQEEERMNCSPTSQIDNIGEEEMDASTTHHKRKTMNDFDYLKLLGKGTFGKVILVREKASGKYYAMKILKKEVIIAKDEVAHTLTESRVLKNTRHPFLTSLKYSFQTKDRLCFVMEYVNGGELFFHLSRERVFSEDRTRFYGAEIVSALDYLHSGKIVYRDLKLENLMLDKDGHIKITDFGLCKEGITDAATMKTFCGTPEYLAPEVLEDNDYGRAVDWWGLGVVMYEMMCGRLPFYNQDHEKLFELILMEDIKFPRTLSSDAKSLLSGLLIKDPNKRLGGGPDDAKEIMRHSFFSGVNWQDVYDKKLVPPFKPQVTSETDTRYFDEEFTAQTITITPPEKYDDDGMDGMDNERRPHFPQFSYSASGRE", "test": "Ex vivo IP-kinase assay of Akt3 in mouse tissues", "conditions": "exogenous insulin ip (1 or 5 μg)"}, "[1]": {"test": "Blood glucose in nude mice", "assay_type": "in vivo, mouse", "conditions": "40 μg insulin ip in animals treated with 100 mpk AKTi"}, "Akt1": {"molecular_target": "Akt1 (Mus musculus, UniProt P31750)", "sequence (P31750 whole entry)": "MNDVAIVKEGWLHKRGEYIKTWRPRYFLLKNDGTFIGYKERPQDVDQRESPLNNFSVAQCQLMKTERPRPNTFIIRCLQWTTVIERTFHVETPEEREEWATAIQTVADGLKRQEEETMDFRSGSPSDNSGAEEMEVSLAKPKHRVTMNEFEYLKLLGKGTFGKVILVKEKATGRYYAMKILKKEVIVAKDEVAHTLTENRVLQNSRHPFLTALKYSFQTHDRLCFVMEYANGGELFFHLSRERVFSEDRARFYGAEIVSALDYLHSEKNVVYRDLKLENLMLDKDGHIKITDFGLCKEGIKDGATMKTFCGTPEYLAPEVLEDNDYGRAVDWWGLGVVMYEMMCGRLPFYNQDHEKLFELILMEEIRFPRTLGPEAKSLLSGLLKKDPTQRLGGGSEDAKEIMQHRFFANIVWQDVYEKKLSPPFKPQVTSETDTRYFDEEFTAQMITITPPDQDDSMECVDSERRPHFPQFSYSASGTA", "test": "Ex vivo IP-kinase assay of Akt1 in mouse tissues", "conditions": "exogenous insulin ip"}, "[2]": {"test": "Plasma insulin in nude mice", "conditions": "30 min after injection; for plasma insulin levels increase: no AKTi"}, "[3]": {"system": "Akt signaling (pAkt, S6 protein, 4EBP-1) in LNCaP and T47D cells", "test": "Western blot of Akt pathway phosphorylation in LNCaP and T47D cells", "conditions": "3 hrs"}}, "data": [{"molecule": "Insulin: Recombinant insulin obtained from Invitrogen, injected intraperitoneally", "values": [{"measurement": "maximal increase of Akt3 activity in lung", "setting": "Akt3", "value": 40, "unit": "%"}, {"measurement": "effect on glucose levels", "setting": "[1]", "value": "only a minor effect on glucose levels"}, {"measurement": "induction of Akt1 activity in liver", "setting": "Akt1", "value": "~10", "unit": "fold"}, {"measurement": "plasma insulin levels increase", "setting": "[2]; 1 μg insulin ip", "value": "about 20 fold"}, {"measurement": "plasma insulin levels increase", "setting": "[2]; 5 μg insulin ip", "value": "~100", "unit": "fold"}, {"measurement": "Insulin, plasma", "setting": "[2]; insulin 5.0 μg per mouse ip", "value": "77 ± 21", "unit": "ng/mL"}]}, {"molecule": "Cc1n[nH]c2ccc(-c3cncc(OC[C@@H](N)Cc4c[nH]c5ccccc45)c3)cc12", "note": "[A443654]", "values": [{"measurement": "blocking phosphorylation of S6 protein and 4EBP-1", "setting": "[3]", "value": "equally effective at blocking phosphorylation"}, {"measurement": "hyper-phosphorylation of Akt", "setting": "[3]", "value": "feed-back hyper-phosphorylation"}]}]}
